This note sets out measurements from US20200140532A1.

What all share (experiment): periplasmic extract ELISA, control
On the technique in general: An ELISA detects its analyte on a solid surface through an enzyme-linked reagent.

The target in experiment [1] is recombinant human Aggrecan G1-IGD-G2 (human) (UniProt P16112).
For experiment [2], the target named is recombinant cynomolgus Aggrecan G1-IGD-G2 (cynomolgus).
Experiment [3] deals with recombinant dog Aggrecan G1-IGD-G2 (dog) (UniProt Q28343).
Experiment [4] deals with recombinant rat Aggrecan G1-IGD-G2 (rat) (UniProt P07897).
Experiment [5] has as its target recombinant bovine Aggrecan G1-IGD-G2 (bovine) (UniProt P13608).

Values joined by “and” are separate entries in the source; they are usually repeats but may differ in a detail not shown here. Equal values may be shown once.

In the case of cAbLys3 (VHH), the OD 450 nm was 0.05 OD 450 nm in experiment [1]; 0.06 OD 450 nm and 0.05 OD 450 nm in experiment [2]; 0.06 OD 450 nm in experiment [3]; 0.06 OD 450 nm in experiment [4]; 0.05 OD 450 nm and 0.06 OD 450 nm in experiment [5].
